Measured values as given in US20160340421A1 (Regeneron, published 2016).
Each block holds one binder with its values, some of them ahead of it.

Experiments:
[1] = molecular target: T1, Human GDF8 homodimer (mature human Growth and Differentiation Factor-8) (human, UniProt O14793 267-375); assay: cell-based or functional assay
T1 sequence: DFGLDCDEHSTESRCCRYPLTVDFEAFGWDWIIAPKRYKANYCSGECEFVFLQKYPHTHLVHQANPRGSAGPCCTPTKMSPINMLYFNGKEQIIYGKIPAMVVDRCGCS

hGDF11 homodimer [2] = molecular target: T2, hGDF11 homodimer (human, UniProt O95390 299-407); assay: cell-based or functional assay
T2 sequence (looked up): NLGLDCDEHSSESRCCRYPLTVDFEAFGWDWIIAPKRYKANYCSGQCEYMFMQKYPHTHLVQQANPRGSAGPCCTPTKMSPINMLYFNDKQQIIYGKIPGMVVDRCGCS

[3] = molecular target: T3, T65 chimera: GDF8.1-64.TGFβ1.69-76.GDF8.73-109 (Mus musculus (Mouse), UniProt O08689 268-376); assay: Western blot of CHO.hFurin supernatant, antibody 2 µg/ml
T3 construct: CHO.hFurin supernatant
T3 chain: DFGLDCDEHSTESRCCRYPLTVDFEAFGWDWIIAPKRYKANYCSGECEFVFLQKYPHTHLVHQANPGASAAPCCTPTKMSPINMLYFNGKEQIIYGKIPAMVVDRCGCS
Method: (§1) The various chimeric GDF8 pro-proteins were transiently transfected in an engineered stable CHO.hFurin cell line. A similar Western Blot analysis as described above was used to detect the binding of various anti-hGDF8 antibodies to each of the chimeric GDF8. Briefly, […] of CHO supernatant were loaded onto each lane of an SDS-PAGE (non-reducing or reducing) gel and electroblotted onto a PVDF membrane. The membrane was then incubated with an anti-GDF8 antibody at 2 μg/ml followed by exposure to the appropriate secondary antibody conjugated to HRP.

[4] = molecular target: T4, B48 chimera: GDF8.1-47.BMP2.48-77.GDF8.73-109; assay: as above
T4 construct: CHO.hFurin supernatant
T4 chain: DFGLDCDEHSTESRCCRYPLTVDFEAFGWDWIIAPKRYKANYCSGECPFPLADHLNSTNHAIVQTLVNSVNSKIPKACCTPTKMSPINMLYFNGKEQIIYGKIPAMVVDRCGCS
Method: as §1

[5] = molecular target: T5, B91 chimera: GDF8.1-90.BMP2.96-110.GDF8.106-109; assay: as above
T5 construct: CHO.hFurin supernatant
T5 chain: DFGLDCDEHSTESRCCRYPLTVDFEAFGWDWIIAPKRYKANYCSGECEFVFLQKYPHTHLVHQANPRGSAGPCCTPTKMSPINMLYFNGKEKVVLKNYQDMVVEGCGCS
Method: as §1

[6] = molecular target: T1, Human GDF8 homodimer (mature human …); assay: SPR, antibody captured, 25 nM antigen
Method: (§2) Equilibrium dissociation constants (KD values) for antigen binding to selected antibodies were determined by surface kinetics using a real-time biosensor surface plasmon resonance assay (BIACORE™ 2000). Each selected antibody was captured on either a goat anti-mouse IgG polyclonal antibody surface or a goat anti-hFc polyclonal antibody (Jackson Immuno Research Lab) surface created through direct chemical coupling to a BIACORE™ chip to form a captured antibody surface. Human GDF8 homodimer, hGDF11 homodimer, or hGDF5 homodimer at 25 nM was injected over the captured antibody surfaces, and antigen-antibody binding and dissociation were monitored in real time at room temperature. Kinetic analysis was performed to calculate KD, dissociation rate constants (kd), association rate constants (ka) and half-life of antigen/antibody complex dissociation (Table 2).

hGDF11 homodimer [7] = molecular target: T2, hGDF11 homodimer; assay: SPR, antibody captured, 25 nM antigen
Method: as §2

[8] = molecular target: T1, Human GDF8 homodimer (mature human …); assay: cell-based or functional assay; remark: listed apart in the source
hGDF11 homodimer [9] = molecular target: T2, hGDF11 homodimer; assay: cell-based or functional assay; remark: listed apart in the source
[10] = molecular target: T1, Human GDF8 homodimer (mature human …); assay: SPR Biacore T100, captured on anti-hFc, 25°C
Method: (§3) Additional antigen binding experiments were conducted in which GDF8 and GDF11 were applied over a surface of selected anti-GDF8 antibodies and control antibodies at 25° C. and 37° C. Equilibrium dissociation constants (KD values) for antigen binding to selected antibodies were determined by surface kinetics using a real-time biosensor surface plasmon resonance assay (BIACORE™ T100). […] Various concentrations (2.5-0.625 nM, 2-fold dilutions) of hGDF8 homodimer or hGDF11 homodimer (or in some experiments, Activin A) were injected over the captured antibody surfaces, and antigen-antibody binding and dissociation were monitored in real time. Kinetic analysis was performed to calculate KD, dissociation rate constants (kd), association rate constants (ka) and half-life of antigen/antibody complex dissociation. (NB=no binding observed).

[11] = molecular target: T1, Human GDF8 homodimer (mature human …); assay: SPR Biacore T100, captured on anti-hFc, 37°C
Method: as §3

[12] = molecular target: T6, GDF8/TGFβ[48-72] chimera (T48): GDF8.1-47.TGFβ1.49-76.GDF8.73-109 (human GDF8 with human TGFβ-1 sequence); assay: cell-based or functional assay
T6 chain: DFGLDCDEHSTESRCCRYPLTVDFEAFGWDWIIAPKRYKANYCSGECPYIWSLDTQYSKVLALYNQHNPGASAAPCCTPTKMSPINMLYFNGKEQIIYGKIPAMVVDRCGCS

[13] = molecular target: T1, Human GDF8 homodimer (mature human …); assay: SPR, antibody captured, buffer without BSA
Method: as §2

hGDF11 homodimer [14] = molecular target: T2, hGDF11 homodimer; assay: SPR, antibody captured, buffer without BSA
Method: as §2

hGDF11 homodimer [15] = molecular target: T2, hGDF11 homodimer; assay: GDF11-inducible luciferase bioassay, 0.4 nM GDF11 (legend: NB=no binding)

IC50, GDF8-inducible luciferase, A204/Smad2 cells, 0.8 nM GDF8 [1]: 0.8 nM
IC50, GDF11-inducible luciferase, A204/Smad2 cells, 0.8 nM GDF11 (hGDF11 homodimer [2]): 1400 nM
binding result [3]: binds
binding result [4]: binds
binding result [5]: binds
Kd [6]: 0.32 nM
T1/2 [6]: 1 h
Kd (hGDF11 homodimer [7]): 0.3 nM
T1/2 (hGDF11 homodimer [7]): 0.467 h
IC50, luciferase bioassay, 0.5 nM GDF8 [8]: 0.196 nM
IC50, luciferase bioassay, 1 nM GDF8 [8]: 0.363 nM
IC50, luciferase bioassay, 0.4 nM GDF11 (hGDF11 homodimer [9]): ~600 nM
IC50, luciferase bioassay, 0.8 nM GDF11 (hGDF11 homodimer [9]): ~800 nM
B1: 1A2 (antibody, V domains shown)
VH: EVQLLESGGGLVQPGGSLRLSCAASGFTSITYAMSWVRQAPGKGLEWVSAISVSGTNTYYADSVKGRFTISRDKSKNMLYLQMNSLRAEDTAVYYCAKDLLHNWKYGTFDIWGQGTMVTVSS
VL: EIVMTQSPATLSVSPGERATLSCRASQSVDSNLVWYQQKPGQVPRLLIYGASTRATGIPARFSGSGSGTEFTLTISSLQSEDFAVYYCQQYNKWPLTFGGGTKVEIK
notes: also called 1A2 mAb

Kd [10]: 0.0623 nM
T1/2 [10]: 1.6 h
Kd [11]: 0.0462 nM
T1/2 [11]: 0.65 h
B2: 1A2-hIgG1 (antibody, V domains shown)
VH: EVQLLESGGGLVQPGGSLRLSCAASGFTSITYAMSWVRQAPGKGLEWVSAISVSGTNTYYADSVKGRFTISRDKSKNMLYLQMNSLRAEDTAVYYCAKDLLHNWKYGTFDIWGQGTMVTVSS
VL: EIVMTQSPATLSVSPGERATLSCRASQSVDSNLVWYQQKPGQVPRLLIYGASTRATGIPARFSGSGSGTEFTLTISSLQSEDFAVYYCQQYNKWPLTFGGGTKVEIK
notes: variable domains of 1A2; also called 1A2-hlgG1

approximate IC50, luciferase bioassay with GDF8/TGFβ[48-72] conditioned medium [12]: 0.357 nM
B3: 1A2-hFc (antibody, V domains shown)
VH: EVQLLESGGGLVQPGGSLRLSCAASGFTSITYAMSWVRQAPGKGLEWVSAISVSGTNTYYADSVKGRFTISRDKSKNMLYLQMNSLRAEDTAVYYCAKDLLHNWKYGTFDIWGQGTMVTVSS
VL: EIVMTQSPATLSVSPGERATLSCRASQSVDSNLVWYQQKPGQVPRLLIYGASTRATGIPARFSGSGSGTEFTLTISSLQSEDFAVYYCQQYNKWPLTFGGGTKVEIK

Kd [13]: 0.018 nM
T1/2 [13]: 2.53 h
Kd (hGDF11 homodimer [14]): 0.926 nM
T1/2 (hGDF11 homodimer [14]): 1 min
B4: 1A2-mIgG (antibody, V domains shown)
VH: EVQLLESGGGLVQPGGSLRLSCAASGFTSITYAMSWVRQAPGKGLEWVSAISVSGTNTYYADSVKGRFTISRDKSKNMLYLQMNSLRAEDTAVYYCAKDLLHNWKYGTFDIWGQGTMVTVSS
VL: EIVMTQSPATLSVSPGERATLSCRASQSVDSNLVWYQQKPGQVPRLLIYGASTRATGIPARFSGSGSGTEFTLTISSLQSEDFAVYYCQQYNKWPLTFGGGTKVEIK
notes: variable domains of 1A2

Kd [13]: 0.006 nM
T1/2 [13]: 5.67 h
Kd (hGDF11 homodimer [14]): 0.64 nM
T1/2 (hGDF11 homodimer [14]): 6 min
B5: 1A2-hIgG (antibody, V domains shown)
VH: EVQLLESGGGLVQPGGSLRLSCAASGFTSITYAMSWVRQAPGKGLEWVSAISVSGTNTYYADSVKGRFTISRDKSKNMLYLQMNSLRAEDTAVYYCAKDLLHNWKYGTFDIWGQGTMVTVSS
VL: EIVMTQSPATLSVSPGERATLSCRASQSVDSNLVWYQQKPGQVPRLLIYGASTRATGIPARFSGSGSGTEFTLTISSLQSEDFAVYYCQQYNKWPLTFGGGTKVEIK
notes: variable domains of 1A2

binding result (hGDF11 homodimer [15]): no binding
Kd [10]: 0.0393 nM
T1/2 [10]: 2.18 h
Kd [11]: 0.0584 nM
T1/2 [11]: 0.667 h
IC50, luciferase bioassay, 0.5 nM GDF8 [8]: 0.9 nM
B6: H4H1669P (antibody, V domains shown)
VH: QVQLVESGGGVVQPGKSLRLSCAASGFTFSSFGMHWVRQAPGKGLEWVAVIGYDGGNEYYADSVKGRFTISRDNSKNTLNLQMSSLRAEDTAVYYCSTISHYDILSGMDVWGRGTTVTVSS
VL: DIQMTQSPSSVSASVGDRVTITCRASQGISNWLAWYQQKPGKAPKLLIFAASSLQSGVPSRFSGSASGTDFTLTINSLQPEDFATYYCQQANSFPLTFGGGTKVEIKR
notes: captured by anti-hFc, so human Fc

IC50, GDF8-inducible luciferase, A204/Smad2 cells, 0.8 nM GDF8 [1]: 8.5 nM
IC50, GDF11-inducible luciferase, A204/Smad2 cells, 0.8 nM GDF11 (hGDF11 homodimer [2]): 35 nM
Kd [6]: 0.26 nM
T1/2 [6]: 2.3 h
Kd (hGDF11 homodimer [7]): 0.12 nM
T1/2 (hGDF11 homodimer [7]): 1.93 h
IC50, luciferase bioassay, 0.5 nM GDF8 [8]: 2.34 nM
IC50, luciferase bioassay, 1 nM GDF8 [8]: 2.98 nM
IC50, luciferase bioassay, 0.4 nM GDF11 (hGDF11 homodimer [9]): 6.9 nM
IC50, luciferase bioassay, 0.8 nM GDF11 (hGDF11 homodimer [9]): 10.5 nM
B7: 21-E5 (antibody, V domains shown)
VH: QVQLVESGPGLVKPSETLSLTCTVYGGSISSGNYYWGWIRQPPGKGLEWIGTIYYSGSAYYNPSLKSRVTMSVDTSKNQFSLKLSSVTAADTAVYYCVRDYYDSSGHYYNWFDPWGQGTTVTVSS
VL: AIQMTQSPSSLSASVGDRVTITCRASQDIRHDLGWYQQKPGKAPKRLIYAASSLQSGVPSRFSGSGSGTEFTLTISSLQPEDFATYYCLQHNTYPWTFGQGTKVEIKR

IC50, GDF8-inducible luciferase, A204/Smad2 cells, 0.8 nM GDF8 [1]: 9.7 nM
IC50, GDF11-inducible luciferase, A204/Smad2 cells, 0.8 nM GDF11 (hGDF11 homodimer [2]): > 10 nM
Kd [6]: 0.4 nM
T1/2 [6]: 1.3 h
Kd (hGDF11 homodimer [7]): 0.9 nM
T1/2 (hGDF11 homodimer [7]): 0.35 h
B8: 21-A2 (antibody, V domains shown)
VH: QVQLVQSGGGLVQPGGSLRLSCAASGFTFNTYAISWVRQAPGKGLEWVSTITGSGYNTYYADSVKGRFTISRDNSKNTLYLQMSSLRAEDTAVFYCAKDSRYNWNYGIFDYWGQGTTVTVSS
VL: DIQMTQSPATLSVSPGERATLSCRASQSVSSNLAWYHQKPGQAPRLLIYGVSTRATGIPARFSGNGSGTEFTLTISSLQSEDFAVYYCQQHNNWPLTFGGGTKVEIKR
